± gives the uncertainty stated by the source.
B1: Ubiquitin-protein ligase residues 30 to 86; numbered along this chain, Q05086 (parent)
chain: KHLIERYYHQLTEGCGNEACTNEFCASCPTFLRMDNNAAAIKALELYKINAKLCDPH

Variants of: B1
Test: abundance fitness (aPCA) (normalised: wild type 0, dead -1); higher = more abundant; growth selection in yeast, the domain comes from the species named
Settings: Homo sapiens

Point of comparison: KHLIERYYHQLTEGCGNEACTNEFCASCPTFLRMDNNYAAIKALELYKINAKLCDPH [A38Y], abundance fitness 0.08 ± 0.24. Against it:
- KHLIERYYHQLTEGCGNEACTNEFCASCPTFLRMDNWAAAIKALELYKINAKLCDPH [N37W] — lower, -0.454 ± 0.11
- KHLIERYYHQLTEGCGNEACTNEFCASCPTFLRMDNKAAAIKALELYKINAKLCDPH [N37K] — within error, -0.107 ± 0.092
- KHLIERYYHQLTEGCGNEACTNEFCASCPTFLRMDNTAAAIKALELYKINAKLCDPH [N37T] — within error, -0.015 ± 0.09
- KHLIERYYHQLTEGCGNEACTNEFCASCPTFLRMDNDAAAIKALELYKINAKLCDPH [N37D] — within error, 0.044 ± 0.096
- KHLIERYYHQLTEGCGNEACTNEFCASCPTFLRMDNHAAAIKALELYKINAKLCDPH [N37H] — within error, -0.075 ± 0.11
- KHLIERYYHQLTEGCGNEACTNEFCASCPTFLRMDNPAAAIKALELYKINAKLCDPH [N37P] — within error, -0.107 ± 0.096
- KHLIERYYHQLTEGCGNEACTNEFCASCPTFLRMDNAAAAIKALELYKINAKLCDPH [N37A] — within error, 0.018 ± 0.082
- KHLIERYYHQLTEGCGNEACTNEFCASCPTFLRMDNMAAAIKALELYKINAKLCDPH [N37M] — within error, -0.186 ± 0.14
- KHLIERYYHQLTEGCGNEACTNEFCASCPTFLRMDNFAAAIKALELYKINAKLCDPH [N37F] — lower, -0.542 ± 0.16
- KHLIERYYHQLTEGCGNEACTNEFCASCPTFLRMDNCAAAIKALELYKINAKLCDPH [N37C] — within error, -0.17 ± 0.089
- KHLIERYYHQLTEGCGNEACTNEFCASCPTFLRMDNRAAAIKALELYKINAKLCDPH [N37R] — within error, -0.086 ± 0.065
- KHLIERYYHQLTEGCGNEACTNEFCASCPTFLRMDGNAAAIKALELYKINAKLCDPH [N36G] — within error, -0.036 ± 0.059
- KHLIERYYHQLTEGCGNEACTNEFCASCPTFLRMDRNAAAIKALELYKINAKLCDPH [N36R] — within error, 0.055 ± 0.067
- KHLIERYYHQLTEGCGNEACTNEFCASCPTFLRMDANAAAIKALELYKINAKLCDPH [N36A] — within error, -0.042 ± 0.093
- KHLIERYYHQLTEGCGNEACTNEFCASCPTFLRMDKNAAAIKALELYKINAKLCDPH [N36K] — within error, 0.013 ± 0.13
- KHLIERYYHQLTEGCGNEACTNEFCASCPTFLRMDHNAAAIKALELYKINAKLCDPH [N36H] — within error, -0.152 ± 0.2
- KHLIERYYHQLTEGCGNEACTNEFCASCPTFLRMDLNAAAIKALELYKINAKLCDPH [N36L] — within error, -0.005 ± 0.081
- KHLIERYYHQLTEGCGNEACTNEFCASCPTFLRMDFNAAAIKALELYKINAKLCDPH [N36F] — within error, -0.046 ± 0.11
- KHLIERYYHQLTEGCGNEACTNEFCASCPTFLRMDTNAAAIKALELYKINAKLCDPH [N36T] — within error, -0.027 ± 0.11
- KHLIERYYHQLTEGCGNEACTNEFCASCPTFLRMDINAAAIKALELYKINAKLCDPH [N36I] — within error, -0.11 ± 0.13
- KHLIERYYHQLTEGCGNEACTNEFCASCPTFLRMDWNAAAIKALELYKINAKLCDPH [N36W] — within error, -0.239 ± 0.098
- KHLIERYYHQLTEGCGNEACTNEFCASCPTFLRMDMNAAAIKALELYKINAKLCDPH [N36M] — within error, -0.181 ± 0.1
- KHLIERYYHQLTEGCGNEACTNEFCASCPTFLRMDYNAAAIKALELYKINAKLCDPH [N36Y] — lower, -0.308 ± 0.13
- KHLIERYYHQLTEGCGNEACTNEFCASCPTFLRMDQNAAAIKALELYKINAKLCDPH [N36Q] — within error, -0.005 ± 0.18
- KHLIERYYHQLTEGCGNEACTNEFCASCPTFLRMDCNAAAIKALELYKINAKLCDPH [N36C] — within error, -0.019 ± 0.1
- KHLIERYYHQLTEGCGNEACTNEFCASCPTFLRMDENAAAIKALELYKINAKLCDPH [N36E] — within error, 0.007 ± 0.095
- KHLIERYYHQLTEGCGNEACTNEFCASCPTFLRMDSNAAAIKALELYKINAKLCDPH [N36S] — within error, 0.044 ± 0.075
- KHLIERYYHQLTEGCGNEACTNEFCASCPTFLRMDVNAAAIKALELYKINAKLCDPH [N36V] — within error, -0.03 ± 0.076
- KHLIERYYHQLTEGCGNEACTNEFCASCPTFLRWDNNAAAIKALELYKINAKLCDPH [M34W] — within error, -0.183 ± 0.083
- KHLIERYYHQLTEGCGNEACTNEFCASCPTFLRYDNNAAAIKALELYKINAKLCDPH [M34Y] — within error, -0.035 ± 0.13
- KHLIERYYHQLTEGCGNEACTNEFCASCPTFLRMDNNHAAIKALELYKINAKLCDPH [A38H] — within error, -0.19 ± 0.21
- KHLIERYYHQLTEGCGNEACTNEFCASCPTFLRMDNNNAAIKALELYKINAKLCDPH [A38N] — within error, -0.213 ± 0.2
- KHLIERYYHQLTEGCGNEACTNEFCASCPTFLRMDNNDAAIKALELYKINAKLCDPH [A38D] — within error, -0.295 ± 0.14
- KHLIERYYHQLTEGCGNEACTNEFCASCPTFLRMDNNMAAIKALELYKINAKLCDPH [A38M] — within error, -0.164 ± 0.12
- KHLIERYYHQLTEGCGNEACTNEFCASCPTFLRMDNNGAAIKALELYKINAKLCDPH [A38G] — within error, -0.191 ± 0.077
- KHLIERYYHQLTEGCGNEACTNEFCASCPTFLRMDNNQAAIKALELYKINAKLCDPH [A38Q] — within error, -0.106 ± 0.12
- KHLIERYYHQLTEGCGNEACTNEFCASCPTFLRMDNNVAAIKALELYKINAKLCDPH [A38V] — within error, 0.029 ± 0.1
- KHLIERYYHQLTEGCGNEACTNEFCASCPTFLRMDNNWAAIKALELYKINAKLCDPH [A38W] — within error, -0.142 ± 0.12
- KHLIERYYHQLTEGCGNEACTNEFCASCPTFLRMDNNKAAIKALELYKINAKLCDPH [A38K] — within error, -0.044 ± 0.13
- KHLIERYYHQLTEGCGNEACTNEFCASCPTFLRMDNNCAAIKALELYKINAKLCDPH [A38C] — within error, -0.083 ± 0.2
- KHLIERYYHQLTEGCGNEACTNEFCASCPTFLRMDNNLAAIKALELYKINAKLCDPH [A38L] — within error, 0.025 ± 0.095
- KHLIERYYHQLTEGCGNEACTNEFCASCPTFLRMDNNIAAIKALELYKINAKLCDPH [A38I] — within error, -0.166 ± 0.16
- KHLIERYYHQLTEGCGNEACTNEFCASCPTFLRMDNNRAAIKALELYKINAKLCDPH [A38R] — within error, 0.005 ± 0.09
- KHLIERYYHQLTEGCGNEACTNEFCASCPTFLRMDNNPAAIKALELYKINAKLCDPH [A38P] — within error, -0.006 ± 0.17
- KHLIERYYHQLTEGCGNEACTNEFCASCPTFLRMDNNEAAIKALELYKINAKLCDPH [A38E] — within error, -0.108 ± 0.11
- KHLIERYYHQLTEGCGNEACTNEFCASCPTFLRMDNNTAAIKALELYKINAKLCDPH [A38T] — within error, -0.07 ± 0.13

— the Human Domainome abundance scans (Beltran et al. 2025)
